Laboratory results from patent publication US20110124571A1 (INSTITUT PASTEUR, published 2011).

Biological target: Recombinant human NEP (neutral endopeptidase, EC 3.4.24.11), devoid of its N-terminal cytosol and … (human, UniProt P08473 52-750)
Experiment: cell-based or functional assay

Recombinant human NEP (neutral endopeptidase, EC 3.4.24.11), devoid of its N-terminal cytosol and …, sequence (P08473 52-750): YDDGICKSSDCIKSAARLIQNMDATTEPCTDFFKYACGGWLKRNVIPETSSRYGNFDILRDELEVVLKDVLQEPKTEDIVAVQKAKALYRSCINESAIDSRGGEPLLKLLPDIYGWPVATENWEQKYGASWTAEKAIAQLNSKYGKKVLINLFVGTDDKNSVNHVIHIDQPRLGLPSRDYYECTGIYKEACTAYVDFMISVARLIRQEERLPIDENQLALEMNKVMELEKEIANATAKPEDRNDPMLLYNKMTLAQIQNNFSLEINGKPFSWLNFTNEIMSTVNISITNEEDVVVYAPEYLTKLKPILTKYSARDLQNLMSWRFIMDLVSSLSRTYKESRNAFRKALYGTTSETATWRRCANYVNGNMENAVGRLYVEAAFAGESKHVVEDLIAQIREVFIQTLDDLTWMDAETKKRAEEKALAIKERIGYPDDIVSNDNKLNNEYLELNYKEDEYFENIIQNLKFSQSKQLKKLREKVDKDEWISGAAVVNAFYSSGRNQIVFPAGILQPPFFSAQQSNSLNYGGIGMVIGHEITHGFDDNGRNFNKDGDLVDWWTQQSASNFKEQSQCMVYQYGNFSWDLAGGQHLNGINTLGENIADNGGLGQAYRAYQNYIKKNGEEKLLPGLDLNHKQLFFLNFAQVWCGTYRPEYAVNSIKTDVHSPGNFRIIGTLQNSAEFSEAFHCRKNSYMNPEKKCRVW

IC50, inhibition of Abz-dR-G-L-EDDnp cleavage by rhNEP (endopeptidase activity): 40 µM
Binder: CQRFSR (spacer -HN-(CH2)6-CO- (amino-hexanoic-acid) between Cys and Gln) [NH2-C-(C6-polyethylene)QRFSR-COOH]
